From paper PMC6800434, “Assessment of glucagon receptor occupancy by Positron Emission Tomography in non-human primates” (Scientific Reports, 2019)
Where “and” joins values, the source holds several entries; their conditions need not be identical. Identical values can stand only once. Positions of bridges follow the written chain, without caps; N, C: chain ends. Non-standard residues stand in square brackets, D forms with d. Residues, ends and D or L forms follow the SMILES beside them. *: point of attachment. DO3A(CH2CH2SO2CH2CH2) = O=C(O)CN1CCN(CCS(=O)(=O)CC*)CCN(CC(=O)O)CCN(CC(=O)O)CC1; Ala(4-thiazolyl) = N[C@@H](Cc1cscn1)C(=O)O

Key:
[1] = Human predicted radiation dosimetry extrapolated from NHP biodistribution (OLINDA/EXM 1.1)
Procedure: The predicted dosimetry of [^68Ga]Ga-DO3A-S01-GCG in human males was estimated based on the in vivo biodistribution in NHPs as captured by dynamic PET examinations. The baseline PET examinations in NHP 2–7 (n=6) were averaged for the dosimetry analysis. […] However, the uptake in the brain in NHP is likely negligible based on observations in rat (5) as well as a whole-body PET/CT examination performed on NHP1 90–120 minutes post [^68Ga]Ga-DO3A-S01-GCG administration.
The dosimetry calculations were performed as described previously for [^68Ga]Ga-DO3A-VS-Cys^40-Exendin4[4] and [^68Ga]Ga-DO3A-S01-GCG in rat[5].
In brief, dynamic NHP organ uptake as measured by PET and expressed as SUV was normalised to that of human organs (using tissue weights of whole-body adult reference phantoms). The decay-corrected and normalized SUVs were back-corrected to count rates to calculate the actual radiation burden in each tissue. The tissue residence times (MBq-h/MBq) were assessed by trapezoidal approximation of the un-decay corrected human SUV biodistribution data. The tissue washout from the last time point (90 minutes) until infinity was estimated by a single mono-exponential fit.
The estimation of the absorbed dose was performed by the OLINDA/EXM 1.1 software, where the calculations were based on the adult reference male or female phantoms to obtain the absorbed dose estimate in humans (ICRP60). The organ specific doses are reported as mGy/MBq (effective dose as mSv/MBq). The amount of MBq that can be safely administered annually (MBq/year) was calculated for each organ as well as the effective dose, by dividing the limiting dose (10 mSv/year for the effective dose, 150 mGy/year for all tissues except for red marrow with 50 mGy/year) by the dose (mGy/MBq or mSv/MBq).

[2] = In vivo metabolic stability in venous plasma (radio-HPLC); set-up: species or system cynomolgus monkeys; settings: NHP in vivo, n = 3
Procedure: For NHP 5–7, venous blood samples were taken at 5, 30 and 60 min for assessment of in vivo metabolic stability of [^68Ga]Ga-DO3A-S01-GCG, using HPLC methods described below. The percentage of intact [^68Ga]Ga-DO3A-S01-GCG was plotted against time from administration and fitted to a mono-exponential function.
Blood samples were centrifuged at 4000 rpm for 2 minutes at 4 °C (Beckman Allegra X-22R Centrifuge, Palo Alto, USA). From the plasma, 0.5 ml was taken and an equal volume of acetonitrile was added to precipitate the proteins. The mixture was centrifuged at 13200 rpm at 4 °C for 1 min (Eppendorf 5415 R centrifuge, Eppendorf AG, Hamburg, Germany). The supernatant was filtered through a 0.2 μm nylon membrane (Corning Incorporated, Corning, NY, USA) by centrifugation at 13200 rpm at 4 °C for 1 min. 500 µl of the filtered supernatant was diluted with 1500 µl H2O; thereafter, 30 µl of 0.01 mM unlabelled DO3A-S01-GCG was added to the mixture. The sample preparation recovery was determined by measuring the radioactivity in the plasma, filters and pellet.
HPLC analysis was performed using a binary pump system (Gilson, Middleton, USA). The sample (1.8 ml) was injected using an automated solid phase extraction controller (ASPEC Gilson) connected to a dilutor (Gilson). The separation was performed on an Xbridge Prep BEH130 C18 (peptide separation technology) 250 mm × 10 mm, 5 µm with a 10 × 10 mm C18 security guard from the same supplier. The HPLC system was operated at a flow rate of 6 ml/min. The mobile phase consisted of 0.1% TFA in MilliQ: 0.1% TFA in Acetonitrile. Gradient elution mode was used for the separation (Gradient: 0–7 min: 5–70%, 7–12 min: 70%, 12–13 min: 70–5%, 13–15 min: 5%).
A second method was developed with a lesser gradient, to determine if any metabolites were co-eluting with the DO3A-S01-GCG peak. A UV detector (Gilson) was used to detect unlabelled DO3A-S01-GCG at 220 nm. […] Six fractions were collected, and the radioactivity in the fractions was measured by a well-type scintillation counter. […]

human spleen sections = experiment: In vitro autoradiography of spleen sections; assay type: binding; settings: 10 µM GCG or 1 µm DO3A-S01-GCG precursor, 60 min RT, n = 3
Procedure: (§1) Splenic binding of [^68Ga]Ga-DO3A-S01-GCG was previously observed in rat in vivo[5]. This assay was performed to elucidate if splenic binding in human and NHP in vivo would be expected.
(§2) Spleen tissue was collected post-mortem from the NHP and Sprague Dawley rat. Biopsies from donor human spleen were obtained from Uppsala Biobank (sample collection 827) and approved by local ethical review board (Drn 2016/465).
(§3) The splenic biopsies were processed to 10 µm frozen tissue sections by a cryotome. The sections were pre-incubated in phosphate-buffered saline (PBS) (pH 7.4, 1% Bovine Serum Albumin (BSA)) for 10 min at room temperature (RT). Then, the sections were incubated with 5 nM [^68Ga]Ga-DO3A-S01-GCG in […] PBS (pH 7.4, 1% BSA), either alone or in the presence of 10 µM GCG or 1 µm DO3A-S01-GCG precursor for 60 min at RT.
(§4) After incubation, the sections were washed three times, first with assay buffer (PBS pH 7.4 1% BSA) and then twice with PBS for 1 minute. Sections were carefully dried at 37 °C and then exposed against a digital phosphorimager plate, together with a 20 µl reference from the buffer calibrated against a gamma-counter to enable quantification to fmol bound radioligand/mm^3. The phosphorimager plates were scanned using a Cyclone Plus Phosphor imager (Perkin Elmer) at 600 dpi, and the resulting autoradiograms analysed by ImageJ (NIH, Bethesda). […]

NHP spleen sections = experiment: In vitro autoradiography of spleen sections; assay type: binding; settings: 10 µM GCG or 1 µm DO3A-S01-GCG precursor, 60 min RT, n = 3
Procedure: as §1, §2, §3, §4

rat spleen sections = experiment: In vitro autoradiography of spleen sections; assay type: binding, Sprague Dawley rat; settings: 10 µM GCG or 1 µm DO3A-S01-GCG precursor, 60 min RT, n = 3
Procedure: as §1, §2, §3, §4

[3] = extrapolated from NHP 2-7 baseline PET (n = 6)

Effect of co-incubation on [68Ga]Ga-DO3A-S01-GCG binding in human spleen sections (human spleen sections) | Effect of co-incubation on [68Ga]Ga-DO3A-S01-GCG binding in NHP spleen sections (NHP spleen sections) | Blocking of [68Ga]Ga-DO3A-S01-GCG binding in rat spleen sections by co-incubation (rat spleen sections) | Compound | Human predicted absorbed dose, heart wall (myocardium) [1, 3] [mGy/MBq] | Human predicted absorbed dose, kidneys [1, 3] [mGy/MBq] | Human predicted absorbed dose, liver [1, 3] [mGy/MBq] | Human predicted absorbed dose, red marrow [1, 3] [mGy/MBq] | Human predicted effective dose [1, 3] [µSv/MBq] | Annual limit of administered radioactivity, effective dose limiting ([1]; limit 10 mSv/year) [MBq] | Annual exposure limit from red marrow absorbed dose ([1]; limit 50 mGy/year) [MBq] | Annual administration allowed by critical organ kidney ([1]; limit 150 mGy/year) | Intact radioligand in venous plasma ([2]; 5 minutes after administration) [%] | Intact radioligand in venous plasma ([2]; 30 minutes after administration) [%] | Intact radioligand in venous plasma ([2]; 60 minutes after administration) [%]
– | – | – | CC[C@H](C)[C@H](NC(=O)[C@H](Cc1ccccc1)NC(=O)[C@H](CCC(=O)O)NC(=O)[C@@H]1CCCCNC(=O)CC[C@H](NC(=O)[C@H](CC(=O)O)NC(=O)[C@H](CC(C)C)NC(=O)[C@H](CCC(N)=O)NC(=O)[C@H](CCCCN)NC(=O)[C@H](CO)NC(=O)[C@H](Cc2ccc(O)cc2)NC(=O)[C@H](CC(=O)O)NC(=O)[C@H](CO)NC(=O)[C@@H](NC(=O)[C@H](Cc2ccccc2)NC(=O)[C@@H](NC(=O)CNC(=O)[C@H](CCC(N)=O)NC(=O)[C@@H](CO)NC(=O)[C@@H](N)Cc2cscn2)[C@@H](C)O)[C@@H](C)O)C(=O)N[C@@H](CCC(N)=O)C(=O)N[C@@H](CCCNC(=N)N)C(=O)N[C@@H](C)C(=O)N1)C(=O)N[C@@H](CCC(=O)O)C(=O)N[C@@H](Cc1c[nH]c2ccccc12)C(=O)N[C@@H](CC(C)C)C(=O)N[C@@H](CC(C)C)C(=O)N[C@@H](C)C(=O)N[C@H](C(=O)NCC(=O)N1CCC[C@H]1C(=O)N[C@@H](CCC(=O)O)C(=O)N[C@@H](CO)C(=O)NCC(=O)N[C@@H](C)C(=O)N1CCC[C@H]1C(=O)N1CCC[C@H]1C(=O)N1CCC[C@H]1C(=O)N[C@@H](CO)C(=O)N[C@@H](CSCCS(=O)(=O)CCN1CCN(CC(=O)O)CCN(CC(=O)O)CCN(CC(=O)O)CC1)C(N)=O)[C@@H](C)O [[^68Ga]Ga-DO3A-S01-GCG, metal not drawn] (H-[Ala(4-thiazolyl)][dS]QGTFTSDYSKQLDEQRAKEFIEWLLATGPESGAPPPSC(DO3A(CH2CH2SO2CH2CH2))-NH2; lactam 16-20) | 0.10 | 0.29 | 0.049 | 0.039 | 20.6 | 485 | > 1000 | 519 MBq and > 500 MBq | 95.9 ± 1.2 | 89.0 ± 2.7 | 80.3 ± 3.3
not affected | not affected | could be blocked | glucagon | – | – | – | – | – | – | – | – | – | – | –
